From patent US11866760B2, “Microorganisms for the production of insect pheromones and related compounds” (Provivi, Inc., priority 2017, dated 2024)

What was measured:
S. cerevisiae ΔOLE1 = assay: ΔOLE1 growth complementation assay without UFA; assay type: cell-based, Saccharomyces cerevisiae
Description: S. cerevisiae ΔOLE1 (MATA OLE1::LEU2 ura3-52 his4) was used as an expression host. A synthetic expression cassette termed pOLE1 (FIG. 10, SEQ ID NO: 4) which comprises the OLE1 promoter region (SEQ ID NOs: 5 and 6), nucleotides encoding for 27 N-terminal amino acids of the OLE1 leader sequence (SEQ ID NO: 7), and a VPS13 terminator sequence (SEQ ID NO: 8) was created, and cloned into pESC-URA vector in between SacI and EcoRI sites. To test the functionality of the pOLE1 cassette, Dasher GFP synthon was inserted in between SpeI and NotI sites to create pOLE1-GFP plasmid. Competent ΔOLE1 was transformed with pOLE1-GFP, and plated on CM-Ura glucose agar plate (Teknova) containing UFA (20 mm CM-URA glucose agar plate was coated with 100 μL CM-Ura glucose medium containing 1% tergitol, and 3 μL palmitoleic acid). […] Validation of ΔOLE1 complementation was performed by restoring OLE1 activity. Specifically, native S. cerevisiae OLE1 synthon was inserted into pOLE1 cassette devoid of the leader sequence to create pOLE1-OLE1 plasmid. After transformation of ΔOLE1, and selection on CM-Ura glucose agar containing UFA, single colonies were patched onto YPD and CM-Ura glucose without UFA. After incubation at 30° C. for 5 days, growth was observed (FIG. 11A-FIG. 11E). As expected, Dasher GFP expression could not complement ΔOLE1 growth without UFA (FIG. 11A-FIG. 11E). DNA sequences which encode for desaturase variants were synthesized (to include nucleotide changes which remove restriction sites used for cloning purposes), and cloned into pOLE1 using SpeI-NotI sites (Genscript, SEQ ID NOs: 9-13). Complementation assay of ΔOLE1 with insect desaturases were performed in the same way as with OLE1 desaturase.

palmitic acid [1] = assay: in vivo bioconversion assay of desaturases in C. tropicalis SPV053; assay type: cell-based, Candida tropicalis
Procedure: Functional expression of the heterologous desaturases was characterized by a series of in vivo bioconversion experiments. C. tropicalis SPV053 derived stains expressing insect desaturases were cultured in rich (YPD) or defined (CM glucose) media supplemented with ethanol (for induction) and saturated acid substrates (palmitic acid, methyl palmitate, methyl myristate). Small scale (2 ml) cultures were cultivated for a total of 72 hours in 24 deep well plates with substrate added after the initial 24 hours.
Positive isolates were re-patched onto YPD+300 μg/ml Zeocin and grown overnight and then stored at 4° C. Strains were inoculated from patch plates into 2 ml of YPD in 24 deep well plates (square well, pyramid bottom). Three positive clones were inoculated for each desaturase variant and the mCherry expressing control strain. Deep well plates were incubated at 30° C., 1000 rpm, and 80% humidity in the Infors HT Multitron Pro plate shaker for 24 hrs. After 24 hrs of incubation, cultures were split into equal 1 ml volumes to make two sets of identical plates. Both sets of plates were pelleted by centrifugation at 500×g. One set of plates was resuspended in 2 ml of YPD+0.3% (v/v) ethanol and the second set was resuspended in 2 ml of CM glucose+0.3% ethanol. Ethanol was added at this stage to induce recombinant enzyme expression from the ICL promoter. Cultures were incubated for another 24 hours under the same conditions before 300 mg/L palmitic acid was added to cultures from a 90 g/L stock solution in ethanol. The result was the addition of a fresh 0.3% ethanol in conjunction with the palmitic acid. A subset of strains was also cultured without palmitic acid addition. These cultures had 0.3% ethanol added instead. All cultures were incubated for an additional 24 hrs before a final addition of 0.3% ethanol. After another 24 hr period of incubation, 1.5 ml of each culture was harvested in 1.7 ml microcentrifuge tubes and pelleted. Supernatant was saved in fresh tubes and pellets were processed as described below. A subset of supernatant samples was also extracted to look for free acid in the extracellular medium.
The mCherry control and confirmed positive variants were rescreened using both palmitic acid and methyl palmitate as substrates. The culturing was conducted as described above with equimolar (1.17 mM) amounts of substrate added from ethanol stock solutions (methyl palmitate 94 g/L stock, 313 mg/L final concentration). The same protocol was also repeated with the full panel of strains using an 84 g/L stock of methyl myristate (C14:0). The final concentration of substrate was again 1.17 mM.
The in vivo bioconversion assay was scaled up for confirmation of (Z)-11-hexadecenoic acid synthesis. 2 ml YPD seed cultures of strains SPV0302, SPV0303, and SPV0304 (mCherry), […], SPV0305, and SPV0306 (A. transitella Z11 desaturase), and SPV0307, SPV0308, and SPV0309 (H. zea Z11 desaturase) were grown overnight at 30° C., 1000 rpm, 80% humidity in the Infors HT Multitron plate shaker. 200 μl of overnight culture from each of the three clonal isolates was pooled and inoculated into a single 125 ml baffled flask containing 20 ml YPD. The resulting three flasks were grown for 24 hrs at 30° C. and 250 rpm (Infors Flask shaker). Cultures were pelleted by centrifugation at 500×g and resuspended in 20 ml of YPD+0.3% (v/v) ethanol and returned to 125 ml baffled shake flasks. Cultures were incubated for an additional 24 hours before addition of 300 mg/L palmitic acid in a 90 g/L stock in ethanol (221 μl per flask). After 24 hours of incubation another 0.3% (v/v) ethanol (221 μl) was added to each flask for sustained induction. Flasks were incubated for an additional 24 hours before cells were harvested for FAME analysis and DMDS derivatization.
Total lipid composition as well as the (Z)-11-hexadecenoic acid quantification was based on modified procedures by Moss et al. (1982) and Yousuf et al (2010). […]

palmitic acid [2] = assay: in vivo bioconversion of palmitic acid into Z11-hexadecenoic acid in Y. lipolytica SPV140 and SPV300; assay type: cell-based, Yarrowia lipolytica; details: from ~500 mg/L palmitic acid substrate, 24 well plate assay
Procedure: Functional activity was assessed by a modification of the protocol used for transmembrane desaturase expression in C. viswanathii SPV053 (See Example 6). Briefly, Y. lipolytica SPV140 and SPV300 derived stains expressing insect desaturases were cultured in rich (YPD) to generate biomass. Using the YPD generated biomass, small scale (2 ml) cultures were cultivated with palmitic acid for a total of 48 hours in 24 deep well plates (See Materials & Methods for detail).
Positive isolates were re-patched onto YPD, grown overnight, and then stored at 4° C. Strains were inoculated from patch plates into 2 ml of YPD in 24 deep well plates (square well, pyramid bottom). Three positive clones were inoculated for each desaturase variant. Three isolates of pPV101 in SPV140 and the parent SPV300 were used as negative controls. Deep well plates were incubated at 28° C. and 250 rpm in the Infors Multitron refrigerated flask shaker for 24 hrs. […] Final cell densities were measured with the Tecan Infinite 200pro plate reader. […]
Total lipid composition as well as the (Z)-11-hexadecenoic acid quantification was based on modified procedures by Moss et al. (1982) and Yousuf et al (2010). […] For the analysis of lipids and the quantification of fatty acids 50 μL of 0.2 M TMSH (trimethylsulfonium hydroxide in methanol) was added and the sample analyzed by GC-FID.

[3] = SPV053, supplementation not stated
[4] = SPV053, with palmitic acid supplementation

B1: H. zea desaturase: Helicoverpa zea Z11 desaturase (AAF81787), SEQ ID NO: 54 (protein, listed as Helicoverpa zea)
chain: MAQSYQSTTVLSEEKELTLQHLVPQASPRKYQIVYPNLITFGYWHIAGLYGLYLCFTSAKWATILFSYILFVLAEIGITAGAHRLWAHKTYKAKLPLEILLMVFNSIAFQNSAIDWVRDHRLHHKYSDTDADPHNASRGFFYSHVGWLLVRKHPEVKKRGKELNMSDIYNNPVLRFQKKYAIPFIGAVCFALPTMIPVYFWGETWSNAWHITMLRYIMNLNVTFLVNSAAHIWGNKPYDAKILPAQNVAVSVATGGEGFHNYHHVFPWDYRAAELGNNSLNLTTKFIDLFAAIGWAYDLKTVSEDMIKQRIKRTGDGTDLWGHEQNCDEVWDVKDKSS
rescue of ΔOLE1 growth without UFA (S. cerevisiae ΔOLE1; minimal medium (CM-Ura glucose) agar plate): conferred growth without UFA | rescue of ΔOLE1 growth without UFA (S. cerevisiae ΔOLE1; rich medium (YPD) agar plate): conferred growth without UFA | (Z)-11-hexadecenoic acid titer (palmitic acid [1]; SPV053): ~5.96 mg/L | activity on myristoyl-CoA (palmitic acid [1]; SPV053, methyl myristate substrate): some activity on myristoyl-CoA | (Z)-11/(Z)-9 hexadecenoic acid ratio (palmitic acid [1]; SPV053, palmitic acid supplemented): 1.4 | (Z)-9-hexadecenoic acid in C16-fatty acid composition (palmitic acid [1]; [3]): ~30.91% | (Z)-11-hexadecenoic acid in C16-fatty acid composition (palmitic acid [1]; [3]): ~19.1% | hexadecanoic acid in C16-fatty acid composition (palmitic acid [1]; [3]): approximately 50.0% | (Z)-9-hexadecenoic acid in C16-fatty acid composition (palmitic acid [1]; [4]): 17.5% | (Z)-11-hexadecenoic acid in C16-fatty acid composition (palmitic acid [1]; [4]): 24.4% | hexadecanoic acid in C16-fatty acid composition (palmitic acid [1]; [4]): 58.1% | (Z)-11/(Z)-9 hexadecenoic acid ratio (palmitic acid [1]; SPV053, without palmitic acid supplementation): 0.6 | Z11-hexadecenoic acid production (palmitic acid [2]): ~100 mg/L
